Measured values: paper PMC11260452, “Cooperative Gsx2–DNA binding requires DNA bending and a novel Gsx2 homeodomain interface”
Changes are numbered by the printed parent chain.

Key:
[1] = biological target: T1, Gsx2 167-305 (Mus musculus, UniProt P31316 167-305); test: ITC; K 0.7 ± 0.2 x10^7 M-1; N 0.94; ITC: 50 mM sodium phosphate pH 6.5, 150 mM NaCl, 20 C; EMSA: 35 nM probe, 15 min room temperature, buffer as in cited ref 31; details: protein: recombinant; tags: N-terminal His-tag, cleaved with PreScission; chain copies: 2; 5' overhang 1 nt on each strand
[2] = biological target: T2, Gsx2HD (Mus musculus, UniProt P31316 203-264); test: ITC; K 2.8 ± 1.4 x10^7 M-1; N 0.98; ITC: 50 mM sodium phosphate pH 6.5, 150 mM NaCl, 20 C; EMSA: 35 nM probe, 15 min room temperature, buffer as in cited ref 31; details: protein: recombinant; tags: N-terminal His-tag, cleaved with PreScission; chain copies: 2; 5' overhang 1 nt on each strand
[3] = biological target: T3, Gsx1HD (Mus musculus, UniProt P31315 146-207); test: ITC; K 2.4 ± 0.9 x10^7 M-1; N 0.97; ITC: 50 mM sodium phosphate pH 6.5, 150 mM NaCl, 20 C; EMSA: 35 nM probe, 15 min room temperature, buffer as in cited ref 31; details: protein: recombinant; 5' overhang 1 nt on each strand
[4] = biological target: T1, Gsx2 167-305; test: EMSA; similar free probe depletion, lower cooperativity; ITC: 50 mM sodium phosphate pH 6.5, 150 mM NaCl, 20 C; EMSA: 35 nM probe, 15 min room temperature, buffer as in cited ref 31; details: protein: recombinant; tags: N-terminal His-tag, cleaved with PreScission; chain copies: 2; label: 5' IRDye700 on complementary strand (linker S14); blunt
[5] = biological target: T4, Gsx2HD S212E (Mus musculus, UniProt P31316 203-264, S212E); test: EMSA; binds; reduced cooperativity; ITC: 50 mM sodium phosphate pH 6.5, 150 mM NaCl, 20 C; EMSA: 35 nM probe, 15 min room temperature, buffer as in cited ref 31; details: protein: recombinant; tags: N-terminal His-tag, cleaved with PreScission; label: 5' IRDye700 on complementary strand (linker S14); blunt
[6] = biological target: T5, Gsx2HD L231E (Mus musculus, UniProt P31316 203-264, L231E); test: as above; details: protein: recombinant; tags: N-terminal His-tag, cleaved with PreScission; label: 5' IRDye700 on complementary strand (linker S14); blunt
[7] = biological target: T6, Gsx2HD L216E (Mus musculus, UniProt P31316 203-264, L216E); test: as above; details: protein: recombinant; tags: N-terminal His-tag, cleaved with PreScission; label: 5' IRDye700 on complementary strand (linker S14); blunt
[8] = biological target: T4, Gsx2HD S212E; test: EMSA; binds equally to WT; little to no cooperativity; ITC: 50 mM sodium phosphate pH 6.5, 150 mM NaCl, 20 C; EMSA: 35 nM probe, 15 min room temperature, buffer as in cited ref 31; details: protein: recombinant; tags: N-terminal His-tag, cleaved with PreScission; label: 5' IRDye700 on complementary strand (linker S14); blunt
[9] = biological target: T5, Gsx2HD L231E; test: as above; details: protein: recombinant; tags: N-terminal His-tag, cleaved with PreScission; label: 5' IRDye700 on complementary strand (linker S14); blunt
[10] = biological target: T6, Gsx2HD L216E; test: as above; details: protein: recombinant; tags: N-terminal His-tag, cleaved with PreScission; label: 5' IRDye700 on complementary strand (linker S14); blunt
[11] = biological target: T2, Gsx2HD; test: ITC; K 6.8 ± 4.2 x10^7 M-1; N 1.02; ITC: 50 mM sodium phosphate pH 6.5, 150 mM NaCl, 20 C; EMSA: 35 nM probe, 15 min room temperature, buffer as in cited ref 31; details: protein: recombinant; tags: N-terminal His-tag, cleaved with PreScission; chain copies: 2; 5' overhang 1 nt on each strand
[12] = biological target: Gsx2HD I234E (Mus musculus, UniProt P31316 203-264, I234E); test: ITC; K 5.1 ± 4.2 x10^7 M-1; N 1.05; Fig S6 isotherm 14.7 nM; ITC: 50 mM sodium phosphate pH 6.5, 150 mM NaCl, 20 C; EMSA: 35 nM probe, 15 min room temperature, buffer as in cited ref 31; details: protein: recombinant; tags: N-terminal His-tag, cleaved with PreScission; 5' overhang 1 nt on each strand
[13] = biological target: T3, Gsx1HD; test: ITC; K 5.5 ± 0.8 x10^7 M-1; N 0.96; ITC: 50 mM sodium phosphate pH 6.5, 150 mM NaCl, 20 C; EMSA: 35 nM probe, 15 min room temperature, buffer as in cited ref 31; details: protein: recombinant; 5' overhang 1 nt on each strand
[14] = biological target: T1, Gsx2 167-305; test: ITC; K 1.3 ± 0.6 x10^7 M-1; N 0.85; ITC: 50 mM sodium phosphate pH 6.5, 150 mM NaCl, 20 C; EMSA: 35 nM probe, 15 min room temperature, buffer as in cited ref 31; details: protein: recombinant; tags: N-terminal His-tag, cleaved with PreScission; chain copies: 2; 5' overhang 1 nt on each strand

T1 sequence (P31316 167-305): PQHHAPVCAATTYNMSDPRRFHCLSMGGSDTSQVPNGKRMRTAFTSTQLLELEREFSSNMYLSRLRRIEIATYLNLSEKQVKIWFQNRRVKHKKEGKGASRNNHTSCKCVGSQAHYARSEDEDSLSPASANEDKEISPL
T3 sequence (P31315 146-207): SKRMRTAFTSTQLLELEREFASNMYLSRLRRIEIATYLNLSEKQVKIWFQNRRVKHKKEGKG
T2 sequence (P31316 203-264): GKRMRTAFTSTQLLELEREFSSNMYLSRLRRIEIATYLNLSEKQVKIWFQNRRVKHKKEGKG
T6 sequence (P31316 203-264 L216E): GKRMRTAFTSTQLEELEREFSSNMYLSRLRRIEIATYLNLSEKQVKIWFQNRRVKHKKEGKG
T4 sequence (P31316 203-264 S212E): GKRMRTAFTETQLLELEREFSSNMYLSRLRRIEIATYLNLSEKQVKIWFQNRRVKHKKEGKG
T5 sequence (P31316 203-264 L231E): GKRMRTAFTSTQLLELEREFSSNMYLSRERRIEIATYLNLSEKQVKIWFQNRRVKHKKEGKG
Gsx2HD I234E, sequence (P31316 203-264 I234E): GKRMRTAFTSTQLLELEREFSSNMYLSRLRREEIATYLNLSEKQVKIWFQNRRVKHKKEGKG

B1: TAATGG 15-mer (Common Q50 site) (dsDNA)
DNA 1: TGAGCTAATGGAAGC
DNA 2: AGCTTCCATTAGCTC
- Kd [1]: 143 nM
- Kd [2]: 36 nM
- Kd [3]: 42 nM

B2: GCGGG spacer dimer probe (dsDNA)
DNA 1: TCCAACTAATTAGCGGGTAATTCGTAGTGCGGGCGTGGCT
DNA 2: AGCCACGCCCGCACTACGAATTACCCGCTAATTAGTTGGA
- cooperativity factor (tau) [4]: 12.6 tau cooperativity factor (mean of 3 G/C spacer probes)

B3: GCCGG spacer dimer probe (dsDNA)
DNA 1: B2 DNA 1 with G15C
DNA 2: B2 DNA 2 with C26G
- cooperativity factor (tau) [4]: 12.6 tau cooperativity factor (mean of 3 G/C spacer probes)

B4: GGGCC spacer dimer probe (dsDNA)
DNA 1: B2 DNA 1 with C14G, G16C, G17C
DNA 2: B2 DNA 2 with C24G, C25G, G27C
- cooperativity factor (tau) [4]: 12.6 tau cooperativity factor (mean of 3 G/C spacer probes)

B5: 7bpS / AAATT spacer dimer probe (dsDNA)
DNA 1: B2 DNA 1 with G13A, C14A, G15A, G16T, G17T
DNA 2: B2 DNA 2 with C24A, C25A, C26T, G27T, C28T
- binding result [5]: binds
- binding result [6]: binds
- binding result [7]: binds

B6: 8bpS dimer probe (dsDNA)
DNA 1: TCCAACTAATTAAAGATTTAATTCGTAGTGCGGGCGTGGCT
DNA 2: AGCCACGCCCGCACTACGAATTAAATCTTTAATTAGTTGGA
- binding result [8]: binds
- binding result [9]: binds
- binding result [10]: binds

B7: TAATTA consensus 15-mer (dsDNA)
DNA 1: TGAGCTAATTAAAGC
DNA 2: AGCTTTAATTAGCTC
- Kd [11]: 15 nM
- Kd [12]: 20 nM
- Kd [13]: 18 nM
- Kd [14]: 77 nM
